Source: the RNAGym collection of RNA variant scans (doi:10.1073/pnas.2313332121)
Variants at the floor of the assay were thinned out.

B1: TPR 5TU (parent)
chain: GGAUCUUCUCGAUCUAACAAAAAAGACAAAUCUGCCACAAAGCUUGAGAGCAUCUUCGGAUGCAGAGGCGGCAGCCUUCGGUGGCGCGAUAGCGCCAACGUUCUCAACUAUGACACGCAAAACGCGUGCUCCGUUGAAUGGAGUUUAUCAUG

Variants of: B1
Assay: polymerase ribozyme fitness, log enrichment relative to wild type (log ratio); higher = more active; in vitro selection for triplet polymerase activity
Method in brief: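 For each subunit of a heterodimeric triplet polymerase ribozyme, a mutant library was built by PCR and transcribed, then taken through a single in vitro selection round in triplicate. Selection involved annealing to a biotinylated primer, the partner subunit and triplets, incubation frozen at −7 °C, gel excision of extended constructs, capture on streptavidin beads and RT-PCR. Genotypes were retained after Illumina sequencing of inputs and outputs only with ≥10 input reads and ≥1 read in each output. Fitness is defined as the logarithm of a genotype's enrichment relative to wild-type enrichment, using inverse-variance-weighted averages across replicates, with the logarithm taken to base 2.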

Variant | polymerase ribozyme fitness (log ratio)
GGAUCUUCUCGAUCUAACAAAAAAGACAAAUCUGCCACAAAGCUUGAGAGCAUCUUCGGAUGCAGAGGCGGCAGCCUUCGGUGGCGCGAUAGCGCCAACGUGCUCAACUAUGACACGCAAAACGCGUGCUCCGUUGAAUGUAGUUUAUCAUG [U102G G141U] | -1.98
GGAUCUUCUCGAUCUAACAAUAUAGACAAAUCUGCCACAAAGCUUGAGAGCAUCUUCGGAUGCAGAGGCGGCAGCCUUCGGUGGCGCGAUAGCGCCAACGUUCUCAACUAUGACACGCAAAACGCGUGCUCCGUUGAAUGGAGUUUAUCAUG [A21U A23U] | ≤ -4.2
GGAUCUUCUCGAUCUAACAAAAAAGACAAAUCUGCCACAAAGCUUGAGAGCAUCUUCGGAUGCAGAGGCGGCAGCCUUCGGUGGCGCGAUAGCGCAAACGUUCUCAACUAUGACACGCAAAACGCGUGCUCCGUUGAUUUGAGUUUAUCAUG [C96A A138U G140U] | ≤ -4.2
GGAUCUUCUCGAUCUAACAAAAAAGACAAAGCUGCCACAAAGCUUCAGAGCAUCUUCGGUUGCAGAGGCGGCGGCGUUUGGUGGCGCGAUAAUGCGAACGUUCUCAACUAUGACACGCAAAACGCGUGCUCCGUGGAAUGGAGUUUAUCAUG [U31G G46C A60U A73G C76G C79U G92A C93U C96G U135G] | ≤ -4.2
GGAUCUUCUCGAUCUAACAAAAAAGUCAAAUCUGCCACAAAGCUAGCGAGCAUCUUCGGAGGCAGAGGCGGCAGCCUUGUGUGGCGCGAUAGCGCCAACGUUCUCAACUAUGACACGCAAAGCGCGUGGUCCGUUGAAUGGAGUUUAUCAUG [A26U U45A A47C U61G C79G G80U A122G C129G] | ≤ -4.2
GGAUCUUCUCGAUCUAACAAAAAAGACAAAUCUGCGACAAAGCUUGAGAGCAUCUUCGGAUGCAGAGGCGGCAGCCUUCGGUGGCGCGAUAGCGCCAACGUUCUCAACUAUGACACGCAAAACGCGUGCUCCGUUGAAUGGAGUUUAUCAUG [C36G] | -3.16
GGAUCUUCUCGAUCUAACAAAAAAGACAAAUCUGCCACGAAGCUUGAGAGCAUCUUCAGAUGCAGAGGCGGCAGCCUUCGGUGGCGCGAUAGCGCCAACGUUCUCAACUAUGACACGCAAAACGCGUGCUCCGUUGAAUGGAGUUUAUCAUG [A39G G58A] | -1.68
GGAUCUUCUCGAUCUAACAGAAAAGACAAAUCUGCCACAAAGCUUGAGAGCAUCUUCGGAUGCAGAGGCGGCAGCCUUCGGUGGCGCGAUAGCACCAACGUUCUGAACUAUGACACGCAAAACGCGUGCUCCGUUGAAUGGAGUUUAUCAUG [A20G G94A C105G] | -2.04
GGAUCUUCUCGAUCUAACAAAAAAGACAAAUCUGCCACAAAGCUUGAGAGCAUCUUCGGAUGCAGAGGCGGCAGCCUUCGGUGGAGCGAUAGCGCCAACGUUCUCAACUAUGACACGCAAAACGCGUGCUCCCUUGAAUGGAGUUUAUCAUG [C85A G133C] | -3.5
GGAUCUUCUCGAUCUCACAAAAAUGACAAAUCUGCCACAAAGCUUGAGAGCAUCUUUGGAUGCAGAGGCGGCAGCCUUCGGUGGCGCGAUAGCGCCAACGUUCUCAACUAUGACACGCAAAACGCGUGCUCCGUUGAAUGGAGUUUAUCAUG [A16C A24U C57U] | -2.44
GGAUCUUCUCGAUCUAACAAAAAAGACAAAUCUGCCACAAAGCUUGAGAGCAUCUUCGGAUGCAGAGGCGGCAGCCUUCGGUGGUGCGAUAGCGCCAACGUUCUCGACUAUGACACGCAAAACGCGUGCUCCGUUGAAUGGAGUUUAUCAUG [C85U A106G] | -0.585
GGAUCUUCUCGAUCUAACACAAAAGACAAAUCUGCCACAAAGCAUGAGCGCAUCUUCGGAUGCAGAGGCGGCAGCCUUCGGUGGCGCGAUAGCGCGAACGUUAUCAACUAUGACACGCAAAACGCGUGCUCCGUUGAAUGCAGUUUAUCAUG [A20C U44A A49C C96G C103A G141C] | ≤ -4.2
GGAUCUUCUCGAUCUUACAAAAAAGACAAAUCUGCCACAAAGCUUGAGAGCAUCUUCGGAUGCAGAGGCGGCAGCCUUCGGUGGCGUGUUAGCGCCAACGUUCUCAACUAUGACACGCAAAACGCGUGCUCCGUUGAAUUGAAUUUAUCAUG [A16U C87U A89U G140U G143A] | ≤ -4.2
GGAUCUUCUCGAUCUAACAAAAAAGACAAAUCUGCCACAAAGCUUGAGACCAUCUUAGGAUGCUGAGGCGGCAGCCUGCGGUGGCGCGAUAGCGCCAACGUUCUCAACUAUGACACGCAAAACGCGUGCUCCGUUGAAUGGAGUUUAUCAUG [G50C C57A A64U U78G] | ≤ -4.2
GGAUCUUCUCGAUAUAACAAAAAAGACAAAUCUGCCACAAAGCUUGAGAGCAUCUUCGGAUGCAGAGGCGGCAGCCUUCGGUGGCGCGAUAGCGCCAACGUUCUCAACUAUGACACGCAAAACGCGUGCUCCGUUGAAUGCAGUUUAUCAUG [C14A G141C] | -1.87
GGAUCUUCUCGAUCUAACAAUAAAGACAAAUCAGCCACGAAGCUUGAGAGCAUCUUCGGAUGCAGAGGCGGCAGCCUUCGGUGGCGUGAUAGCGCCAACGUUCUCAACUAUGACACGCAAAACGCGUGCUCCGUUCAAUGGAGUUUAUCAUG [A21U U33A A39G C87U G136C] | ≤ -4.2
GGAUCUUCUCGAUCUAACAAAAAAGACAAAUCUGCCACAAAGCUUGAGAUCAUCUUCGGAUGCAGAGGCGGCAGCCUUCGGUUGCGCGAUAGCGCCAACGUUCUCAACUAUGACACGCAAAACGCGUCCUCCGUUGAAUGGAGUUUAUCAUG [G50U G83U G128C] | -3.62
GGAUCUUCUCGAUCUAAUAAAAAAGACAAAUCUCCCACAAAGCAUGAGAGCAUCUUCGGAUGCAGAGGCGGCAGGCUUCGGUGGCGCGAUAGCGCAAAGGUUCUCAACUAUGACACGCCAAACGCGUGCUCCGUUGAAUGGAGUUUAUCAUG [C18U G34C U44A C75G C96A C99G A119C] | ≤ -4.2
GGAUCUUCUCGAUCUAACAAAAAAGACAGAUCUGCCACAAAGCUUGAGAGCAUCUUAGGAUGCAGAGGCGGCAGCCUUCGGUGGCGCGAUAGAGCAAACGUUCUCAACUAUGACACGCAAAACGCGUGCUCCGUUGAAUGGAGUGUAUCAUG [A29G C57A C93A C96A U145G] | ≤ -4.2
